Where a SMILES comes first, the peptide text is derived from it. The star is where a group is joined. Cbz = O=C(OCc1ccccc1)*; CHN2 = [N-]=[N+]=C*; tBu = CC(C)(C)*
Tests used:
[1] = test system: murine primary bone marrow cells; assay: Osteoclastogenesis of primary bone marrow cells (TRAP staining); assay type: cell-based, mouse; conditions: n = 3 independent experiments; for osteoclast differentiation of primary bone marrow cells: 10 μM inhibitor, Fig. 2F
Experimental: (§1) Primary bone marrow cells were harvested by flushing the cavity of tibia and femur from 5-6 week old Balb/c mice. Erythrocytes were removed by treating cell suspension with the Red Blood Cell Lysing Buffer (R7757, Sigma) for 5 min. The remaining cells were cultured in α-MEM (A1049001, Gibco) supplemented with 10% FBS and 5 ng/ml M-CSF for 12 h. Non-adherent cells were transferred into a 24-well plate and cultured in α-MEM supplemented with 10% FBS, 25 ng/ml M-CSF and 25 ng/ml RANKL for another 5 to 6 days. Cancer cell CM was mixed with α-MEM at a ratio of 1:3. CST6 protein, peptides or other drugs at indicated concentrations were administrated into the culture medium. For assessment of osteoclast differentiation, cells were stained using the Acid Phosphatase TRAP staining kit (387A, Sigma) as previously described. For RAW264.7 osteoclastogenesis assay, 700 cells per well were added into a 96-well plate and cultured in the same medium as shown above except that M-CSF was not essential. 7 ug/ml CST6 antibody (MAB1286, R&D) was used to neutralize recombinant human CST6 in RAW264.7 osteoclastogenesis assay.

[2] = test system: RAW264.7 cells; assay: RAW264.7 osteoclastogenesis assay; assay type: cell-based, mouse
Experimental: as §1

[3] = test system: SPHK1; assay: Intracellular SPHK1 protein level in RAW264.7 (Western blot); assay type: cell-based, mouse; conditions: Fig. 3B
Excerpt: SPHK1 is cleaved by CTSB [20], and more importantly, SPHK1 can negatively regulate osteoclast differentiation by phosphorylating sphingosine into sphingosine-1-phosphate (S1P). Concordantly, we observed that Ctsb knockdown increased SPHK1 expression in primary bone marrow cells (Fig. 3A). […] Similarly, Sphk1 knockdown could also recover osteoclastogenesis of RAW264.7 that was suppressed by the treatment of CST6 recombinant (Fig. 3G, H).

[4] = test system: SCP2 cells; assay: SCP2 bone metastasis in mice (intracardiac injection); assay type: in vivo, mouse
Experimental: For bone metastasis study was performed as previously described. Briefly, athymic Balb/c mice were anesthetized and 10^5 cells in 100 μL phosphate-buffered saline (PBS) were injected into the left cardiac ventricle. Peptides were administrated intravenously into the mice (n = 10 per group) at a dose of 1 mg/kg/day. The control mouse group were administered with same volume of peptide solvents. The metastatic burden was measured by bioluminescent imaging (BLI) with a NightOWL II LB983 Imaging System (Berthold). The osteolytic area was analyzed by the SkyScan 1076 In vivo X-ray Microtomograph (Bruker). The sections of hind legs of the mice was used for H&E, TRAP and immunohistochemistry staining.

[5] = Chronic toxicity assay; assay type: in vivo, mouse; conditions: 10 mg/kg CA-074 for 8 consecutive days, nude mice, n = 9 per group; Fig. S6B
Experimental: […] The body weights of the mice were measured. […] Mice were sacrificed and organs were harvested for weight measurements and H&E staining to observe the pathological changes.

[6] = test system: p38; assay: Phosphorylation of p38 in RAW264.7 (Western blot); assay type: cell-based, mouse
Experimental: To further validate the involvement of p38 signaling in CST6-suppresesed osteoclastogenesis, the p38 inhibitor SB203580 was used to treat RAW264.7 cells that were cultured in cancer cell CM.

[7] = test system: RAW264.7 cells; assay: Internalization of His-tagged CST6 protein by RAW264.7 (Western blot); assay type: cell-based, mouse; conditions: RAW264.7 cultured with CST6-His and various concentrations of Dynasore; Fig. 2K
Experimental: Cathepsins are lysosomal proteases and function only intracellularly in acidic environment. To verify that extracellularly derived CST6 could inhibit the intracellular CTSB activity of osteoclasts, RAW264.7 cells were cultured in the medium containing recombinant CST6 protein and the cell lysates were collected for CTSB activity analysis after phosphate-buffered saline (PBS) washing of the cells. […] Since osteoclasts are active in endocytosis, it is likely that exogenous CST6 is transported into osteoclasts via endocytosis. Indeed, we observed a co-localization of CST6 that entered the cells with the lysosome marker LAMP1 (Fig. S3B). […] Endocytosis inhibition also rescued the CST6-suppressed osteoclastogenesis of RAW264.7 cells (Fig. 2L).

[8] = molecular target: T1, CTSB (Mus musculus, UniProt P10605); assay: Intracellular CTSB activity of RAW264.7 after treatment; assay type: cell-based; conditions: 32 nM CST6 protein in medium, lysates after PBS washing; Fig. 2I
T1 construct: endogenous in cells; host or cells: RAW264.7
T1 sequence (P10605 80-339): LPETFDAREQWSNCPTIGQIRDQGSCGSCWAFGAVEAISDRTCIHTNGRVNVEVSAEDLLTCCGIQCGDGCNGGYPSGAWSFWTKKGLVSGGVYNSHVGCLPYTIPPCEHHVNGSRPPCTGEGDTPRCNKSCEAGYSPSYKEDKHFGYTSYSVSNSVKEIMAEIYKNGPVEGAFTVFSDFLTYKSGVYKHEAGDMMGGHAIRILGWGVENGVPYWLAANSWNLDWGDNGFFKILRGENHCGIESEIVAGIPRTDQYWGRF
Experimental: Cathepsins are lysosomal proteases and function only intracellularly in acidic environment. To verify that extracellularly derived CST6 could inhibit the intracellular CTSB activity of osteoclasts, RAW264.7 cells were cultured in the medium containing recombinant CST6 protein and the cell lysates were collected for CTSB activity analysis after phosphate-buffered saline (PBS) washing of the cells. […] Since osteoclasts are active in endocytosis, it is likely that exogenous CST6 is transported into osteoclasts via endocytosis. Indeed, we observed a co-localization of CST6 that entered the cells with the lysosome marker LAMP1 (Fig. S3B). […]
Enzymatic activities of cathepsins were analyzed with the fluorometric kits of CTSB (K147, Biovision) and CTSL (K161, Biovision) according to the manufacturer's protocol. The LGMN activity was analyzed as previously described with minor modifications of the protocol. […] After three freeze-thaw cycles at -80 °C, the cell lysate was centrifuged at 10000 g for 15 min and the supernatant was transferred into a new tube followed by protein quantification. […] After adding 1 μL substrate Z-Ala-Ala-Asn-AMC (I1865, Bachem) into each well with a final concentration of 10 μM, fluorescence measurements were performed every 5 min at 37 °C using a BioTek's Synergy™ Mx Microplate Reader with a 360 nm excitation filter and a 460 nm emission filter. […]

[9] = test system: RAW264.7 or primary bone marrow-derived osteoclasts; assay: Viability of osteoclasts after CST6 recombinant protein treatment; assay type: cell-based, mouse; conditions: n = 4 independent experiments; Fig. S1E
[10] = test system: SCP2/SCP4 tumor cells; assay: Tumor cell growth after CST6 recombinant protein treatment; assay type: cell-based; conditions: 32 nM, n = 4 biological repeats, Fig. S1F
[11] = Pharmacokinetic assay, circulation half-life; assay type: in vivo, mouse; conditions: Balb/c mice, 1 mg/kg intravenous, serum 0.25-4 h, ELISA (CST6 or His-tag), one-phase decay model; n = 4
Experimental: For pharmacokinetic assays, CST6 protein or His-tagged peptides were administrated intravenously into Balb/c mice (n = 4 per group) at a dose of 1 mg/kg. Blood samples (100 μL) were collected using capillary at 0.25 h, 0.5 h, 1 h, 2 h, 3 h and 4 h, respectively. After 1 h at room temperature, the serum samples were obtained from the supernatant by centrifugation at 3000 rpm for 15 min. The CST6 content in serum was analyzed with CST6 ELISA kit (Sino Biological, 10438). The peptide content was analyzed with the His-tag ELISA kit (GenScript, L00436) according to the manufacturer's instruction. Blank serum samples from mice without protein/peptide administration were used as control. Standard curves for each protein or peptide were generated with standard samples of known concentrations to calculate the protein/peptide concentration in blood samples. The data for all peptides were fitted with the one-phase decay model using Prizm software (GraphPad Software) to calculate the half-lives.

[12] = Acute toxicity assay; assay type: in vivo, mouse; conditions: Balb/c mice, intravenous, death counted after 24 h, n = 5 per group
Experimental: For acute toxicity assays, Balb/c mice (n = 5 per group) were intravenously injected with the indicated protein or peptides at doses of 150, 200, 250, 300, 350 mg/kg. The death of mice was counted after 24 h. The median lethal dose (LD50) was calculated using the Bliss method.

[13] = Tissue distribution by CST6 immunohistochemistry; assay type: in vivo, mouse; conditions: week 5 of 1 mg/kg/day, Fig. S6A
Experimental: We then performed pharmacological evaluation of CST6 protein and peptides.
Supplementary Figure 6. Pharmacological evaluation of CST6 recombinant protein and CA-074.
(A) CST6 immunohistochemistry in various organs at week 5 after administration of 1 mg/kg/day CST6 peptides. The lung section from un-treated mice was used as negative control of the assay. Dotted lines denotes areas of bone metastasis. Scale bar, 150 μm. (B) The body weights of nude mice after treatment of 10 mg/kg CA-074 for 8 consecutive days (n = 9 mice per groups).
(1 picture or pasted object on this page, not shown here)

[14] = nude mice with SCP2, 1 mg/kg/day intravenous, n = 10 mice per group

With `CC(C)(C)Oc1ccc(C[C@H](NC(=O)[C@H](Cc2ccccc2)NC(=O)OCc2ccccc2)C(=O)C=[N+]=[N-])cc1` [Z-FY(t-Bu)-DMK] (Cbz-Phe-Tyr(tBu)-CHN2) the “osteoclast differentiation of primary bone marrow cells” value [1] was “but not the CTSL inhibitor Z-FY(t-Bu)-DMK, was able to inhibit osteoclast differentiation”.

In the case of `CCCNC(=O)[C@H]1O[C@@H]1C(=O)N[C@H](C(=O)N1CCC[C@H]1C(=O)OC)[C@@H](C)CC` [CA-074Me], the “osteoclast differentiation of primary bone marrow cells” value [1] is reported as “able to inhibit osteoclast differentiation”, the “osteoclast differentiation of RAW264.7 cells” value ([2]; treatment with Z-FY or CA074Me, n = 3 independent experiments, Fig. 2G) is reported as “able to inhibit osteoclast differentiation” and the “intracellular SPHK1 protein” value [3] is reported as “stabilized the intracellular SPHK1 protein in a dose-dependent manner”.

With `CC(C)C[C@H](NC(=O)[C@H](Cc1ccccc1)NC(=O)c1cnccn1)B(O)O` [Bortezomib, reference compound] the “body weight of metastasis-bearing mice” value ([4]; nude mice with SCP2, 1 mg/kg/day, Fig. 5F, Fig. S5B (week 5)) was “but not Bortezomib, recovered the body weight of mice”.

For `CCCNC(=O)[C@H]1O[C@@H]1C(=O)N[C@H](C(=O)N1CCC[C@H]1C(=O)O)[C@@H](C)CC` [CA-074], the “body weight of mice” value [5] was “caused apparent body weight loss of the mice”.

For `C[S+]([O-])c1ccc(-c2nc(-c3ccncc3)c(-c3ccc(F)cc3)[nH]2)cc1` (stereo not drawn) [SB203580, reference compound], the “CM-induced osteoclast maturation of RAW264.7” value ([2]; RAW264.7 with RANKL and CM from CST6-knockdown or control SCP4, opposite to enhancement, Fig. 3L) was “showed the opposite effect” and the “CM-induced p38 phosphorylation” value ([6]; RAW264.7 with RANKL and CM from CST6-knockdown or control SCP4, opposite to enhancement, Fig. 3K) was “showed the opposite effect”.

For `O=C(N/N=C/c1ccc(O)c(O)c1)c1cc2ccccc2cc1O` [Dynasore], the “effect on intracellular accumulation of CST6” value [7] was “reduced the intracellular accumulation of CST6 in a dosage-dependent manner”.

B1: CST6: human CST6 recombinant protein expressed in E. coli, type 2 cystatin, inhibitor of cysteine proteases (protein, UniProt Q15828 29-149, looked up)
Cystatin-M: RPQERMVGELRDLSPDDPQVQKAAQAAVASYNMGSNSIYYFRDTHIIKAQSQLVAGIKYFLTMEMGSTDCRKTRVTGDHVDLTTCPLAAGAQQEKLRCDFEVLVVPWQNSSQLLKHNCVQM
modifications: His tag
For B1, the “osteoclastogenesis of primary bone marrow cells” value ([1]; RANKL-containing medium, 5 to 6 days, TRAP staining, indicated concentrations) was “significantly suppressed RANKL-induced differentiation of bone marrow cells into osteoclasts in a dosage-dependent manner”, the “expression of marker genes of osteoclastic differentiation (Caclr, Nfatc1, Acp5, Ctsk, Fos)” value ([2]; RAW264.7, n = 3 biological repeats, Fig. 1J) was “downregulated” and the “osteoclastic differentiation of RAW264.7 cells” value ([2]; cultured with RANKL, 32 nM human CST6 protein, Fig. 1I) was “inhibition of osteoclastic differentiation of cells”. The “intracellular CTSB activity of RAW264.7” value [8] was “inhibited the intracellular CTSB activity of RAW264.7”, the viability of osteoclasts [9] was “did not affect the viability of osteoclasts” and the “growth of tumor cells” value [10] was “did not directly affect the growth of tumor cells”. The “intracellular SPHK1 protein” value [3] was “stabilized the intracellular SPHK1 protein in a dose-dependent manner”, the p38 activation ([6]; RAW264.7, Fig. 3B) was “inhibited p38 activation” and the “bone metastasis (BLI)” value ([4]; nude mice pre-inoculated with SCP2, 1 mg/kg/day intravenous, n = 10 mice per group) was “efficiently alleviated bone metastasis”. For the same molecule, the “osteoclastogenesis and bone destruction in metastases (TRAP+ cells, micro-CT)” value [4, 14] was “reduced osteoclastogenesis and bone destruction”, the “survival of the mice” value [4, 14] was “extended survival of the mice” and the Half-life [11] was 10.48 min. For the same molecule, the LD50 ([12]; 150-350 mg/kg, Bliss method) was 322.00 ± 117.10 mg/kg, the MTD [12] was 200 mg/kg and the “tissue distribution of administrated protein” value [13] was “mainly distributed in liver, kidney, intestine, spleen and bone metastasis foci”.

From article PMC8581426, “CST6 protein and peptides inhibit breast cancer bone metastasis by suppressing CTSB activity and osteoclastogenesis” (Theranostics, 2021)
